From the supplement of paper PMC10567573

B1: PTPN9 (parent)
chain: TQHLPRECLPENLGGYVKIDLATW
B2: KRT13 (parent)
chain: TSSASVTTTSNASGRRTSDVRRP
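Note: lentivirally expressed fusions sorted by FACS into six bins by GFP to DsRed ratio, PSI derived from sequencing read proportions per bin multiplied by bin number.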

Variants of: B1
Experiment: protein stability index of a GFP-peptide fusion (GPS, HEK-293T) (PSI 1-6); higher = more stable
Conditions: c terminus: a fixed tail appended
TQHLPRECLPENLGGYVKIDLATQ [W24Q] gave a protein stability index of 3.13. Work on TQHLPRECLPENLGGYVKIDLATR [W24R] yielded a protein stability index of 2.61. Work on TQHLPRECLPENLGGYVKIDLATS [W24S] yielded a protein stability index of 3.06. With TQHLPRECLPENLGGYVKIDLATT [W24T] the protein stability index was 3. TQHLPRECLPENLGGYVKIDLATV [W24V] gave a protein stability index of 2.06. TQHLPRECLPENLGGYVKIDLATY [W24Y] showed a protein stability index of 1.91.

Variants of: B2
Experiment: as above
Conditions: c terminus: native
For ASSASVTTTSNASGRRTSDVRRP [T1A], the protein stability index was 3.56. Work on DSSASVTTTSNASGRRTSDVRRP [T1D] yielded a protein stability index of 2.46. In the case of ESSASVTTTSNASGRRTSDVRRP [T1E], the protein stability index is reported as 2.33. In the case of FSSASVTTTSNASGRRTSDVRRP [T1F], the protein stability index is reported as 4.09. Variant HSSASVTTTSNASGRRTSDVRRP [T1H] has a protein stability index of 2.22. Work on ISSASVTTTSNASGRRTSDVRRP [T1I] yielded a protein stability index of 2.25. For NSSASVTTTSNASGRRTSDVRRP [T1N], the protein stability index was 1.34. QSSASVTTTSNASGRRTSDVRRP [T1Q] gave a protein stability index of 2.54. VSSASVTTTSNASGRRTSDVRRP [T1V] showed a protein stability index of 2.42. Variant WSSASVTTTSNASGRRTSDVRRP [T1W] has a protein stability index of 2.43. Variant YSSASVTTTSNASGRRTSDVRRP [T1Y] has a protein stability index of 3.12. TDSASVTTTSNASGRRTSDVRRP [S2D] gave a protein stability index of 2.46. TESASVTTTSNASGRRTSDVRRP [S2E] showed a protein stability index of 3.22. TFSASVTTTSNASGRRTSDVRRP [S2F] showed a protein stability index of 2.04. In the case of TGSASVTTTSNASGRRTSDVRRP [S2G], the protein stability index is reported as 2.56. With TKSASVTTTSNASGRRTSDVRRP [S2K] the protein stability index was 3.48. Work on TLSASVTTTSNASGRRTSDVRRP [S2L] yielded a protein stability index of 2.02. Work on TNSASVTTTSNASGRRTSDVRRP [S2N] yielded a protein stability index of 3.25. TPSASVTTTSNASGRRTSDVRRP [S2P] showed a protein stability index of 3.07. For TQSASVTTTSNASGRRTSDVRRP [S2Q], the protein stability index was 1.06. For TTSASVTTTSNASGRRTSDVRRP [S2T], the protein stability index was 2.82. In the case of TVSASVTTTSNASGRRTSDVRRP [S2V], the protein stability index is reported as 3.9. For TYSASVTTTSNASGRRTSDVRRP [S2Y], the protein stability index was 2.08. With TSAASVTTTSNASGRRTSDVRRP [S3A] the protein stability index was 2.61. With TSCASVTTTSNASGRRTSDVRRP [S3C] the protein stability index was 1.96. TSDASVTTTSNASGRRTSDVRRP [S3D] showed a protein stability index of 2.57. TSEASVTTTSNASGRRTSDVRRP [S3E] gave a protein stability index of 2.8. For TSGASVTTTSNASGRRTSDVRRP [S3G], the protein stability index was 3.79. Variant TSHASVTTTSNASGRRTSDVRRP [S3H] has a protein stability index of 2.54. TSIASVTTTSNASGRRTSDVRRP [S3I] gave a protein stability index of 2.32. With TSKASVTTTSNASGRRTSDVRRP [S3K] the protein stability index was 2.86. Variant TSLASVTTTSNASGRRTSDVRRP [S3L] has a protein stability index of 1.99. TSQASVTTTSNASGRRTSDVRRP [S3Q] gave a protein stability index of 2.19. With TSTASVTTTSNASGRRTSDVRRP [S3T] the protein stability index was 1.81. Work on TSVASVTTTSNASGRRTSDVRRP [S3V] yielded a protein stability index of 1.93. With TSWASVTTTSNASGRRTSDVRRP [S3W] the protein stability index was 1.65. TSYASVTTTSNASGRRTSDVRRP [S3Y] showed a protein stability index of 1.46. For TSSDSVTTTSNASGRRTSDVRRP [A4D], the protein stability index was 3.4. In the case of TSSESVTTTSNASGRRTSDVRRP [A4E], the protein stability index is reported as 2.39. For TSSGSVTTTSNASGRRTSDVRRP [A4G], the protein stability index was 2.25. With TSSHSVTTTSNASGRRTSDVRRP [A4H] the protein stability index was 2.6. With TSSISVTTTSNASGRRTSDVRRP [A4I] the protein stability index was 3.97. In the case of TSSKSVTTTSNASGRRTSDVRRP [A4K], the protein stability index is reported as 3.21. Variant TSSLSVTTTSNASGRRTSDVRRP [A4L] has a protein stability index of 3.6. TSSNSVTTTSNASGRRTSDVRRP [A4N] gave a protein stability index of 2.16. For TSSPSVTTTSNASGRRTSDVRRP [A4P], the protein stability index was 1.7. In the case of TSSQSVTTTSNASGRRTSDVRRP [A4Q], the protein stability index is reported as 2.03. With TSSSSVTTTSNASGRRTSDVRRP [A4S] the protein stability index was 1.03. TSSTSVTTTSNASGRRTSDVRRP [A4T] showed a protein stability index of 2.02. For TSSWSVTTTSNASGRRTSDVRRP [A4W], the protein stability index was 2.44. Variant TSSYSVTTTSNASGRRTSDVRRP [A4Y] has a protein stability index of 2.51. For TSSAAVTTTSNASGRRTSDVRRP [S5A], the protein stability index was 2.49. TSSACVTTTSNASGRRTSDVRRP [S5C] gave a protein stability index of 3.15. With TSSADVTTTSNASGRRTSDVRRP [S5D] the protein stability index was 2.48. Variant TSSAEVTTTSNASGRRTSDVRRP [S5E] has a protein stability index of 3.07. Work on TSSAFVTTTSNASGRRTSDVRRP [S5F] yielded a protein stability index of 3.27. In the case of TSSAGVTTTSNASGRRTSDVRRP [S5G], the protein stability index is reported as 2.79. Work on TSSAHVTTTSNASGRRTSDVRRP [S5H] yielded a protein stability index of 3.91. Variant TSSAIVTTTSNASGRRTSDVRRP [S5I] has a protein stability index of 2.37. Variant TSSAKVTTTSNASGRRTSDVRRP [S5K] has a protein stability index of 1.9. TSSAMVTTTSNASGRRTSDVRRP [S5M] showed a protein stability index of 1.88. TSSANVTTTSNASGRRTSDVRRP [S5N] showed a protein stability index of 2.44. With TSSAQVTTTSNASGRRTSDVRRP [S5Q] the protein stability index was 2.59. In the case of TSSATVTTTSNASGRRTSDVRRP [S5T], the protein stability index is reported as 4.31. Variant TSSASATTTSNASGRRTSDVRRP [V6A] has a protein stability index of 2.14. For TSSASCTTTSNASGRRTSDVRRP [V6C], the protein stability index was 4.46. TSSASDTTTSNASGRRTSDVRRP [V6D] gave a protein stability index of 2.88. TSSASFTTTSNASGRRTSDVRRP [V6F] showed a protein stability index of 1.93. TSSASGTTTSNASGRRTSDVRRP [V6G] showed a protein stability index of 2.71. TSSASKTTTSNASGRRTSDVRRP [V6K] showed a protein stability index of 2.39. TSSASLTTTSNASGRRTSDVRRP [V6L] gave a protein stability index of 2.31. In the case of TSSASNTTTSNASGRRTSDVRRP [V6N], the protein stability index is reported as 2.44. Work on TSSASPTTTSNASGRRTSDVRRP [V6P] yielded a protein stability index of 2.51. TSSASQTTTSNASGRRTSDVRRP [V6Q] gave a protein stability index of 1.69. For TSSASRTTTSNASGRRTSDVRRP [V6R], the protein stability index was 1.97. TSSASSTTTSNASGRRTSDVRRP [V6S] showed a protein stability index of 1.09. Work on TSSASTTTTSNASGRRTSDVRRP [V6T] yielded a protein stability index of 3.08. TSSASVATTSNASGRRTSDVRRP [T7A] showed a protein stability index of 2.46. TSSASVDTTSNASGRRTSDVRRP [T7D] showed a protein stability index of 3.4. In the case of TSSASVFTTSNASGRRTSDVRRP [T7F], the protein stability index is reported as 2.24. TSSASVGTTSNASGRRTSDVRRP [T7G] showed a protein stability index of 1.17. With TSSASVHTTSNASGRRTSDVRRP [T7H] the protein stability index was 2.54. TSSASVITTSNASGRRTSDVRRP [T7I] gave a protein stability index of 1.93. Work on TSSASVKTTSNASGRRTSDVRRP [T7K] yielded a protein stability index of 2.19. TSSASVLTTSNASGRRTSDVRRP [T7L] gave a protein stability index of 2.23. Work on TSSASVMTTSNASGRRTSDVRRP [T7M] yielded a protein stability index of 3.08. TSSASVNTTSNASGRRTSDVRRP [T7N] showed a protein stability index of 1.45. For TSSASVPTTSNASGRRTSDVRRP [T7P], the protein stability index was 1.66. Work on TSSASVQTTSNASGRRTSDVRRP [T7Q] yielded a protein stability index of 1.3. With TSSASVRTTSNASGRRTSDVRRP [T7R] the protein stability index was 2.97. Work on TSSASVWTTSNASGRRTSDVRRP [T7W] yielded a protein stability index of 3.38.
